Square brackets hold non-standard residues; d marks the D form. Dap = NC[C@H](N)C(=O)O

This assay has as its target His-tagged SRPK1ΔNS3 (UniProt Q96SB4 1-655). Description: MST.

His-tagged SRPK1ΔNS3, sequence (Q96SB4 other isoform, or with tags, fused parts or gaps mutant): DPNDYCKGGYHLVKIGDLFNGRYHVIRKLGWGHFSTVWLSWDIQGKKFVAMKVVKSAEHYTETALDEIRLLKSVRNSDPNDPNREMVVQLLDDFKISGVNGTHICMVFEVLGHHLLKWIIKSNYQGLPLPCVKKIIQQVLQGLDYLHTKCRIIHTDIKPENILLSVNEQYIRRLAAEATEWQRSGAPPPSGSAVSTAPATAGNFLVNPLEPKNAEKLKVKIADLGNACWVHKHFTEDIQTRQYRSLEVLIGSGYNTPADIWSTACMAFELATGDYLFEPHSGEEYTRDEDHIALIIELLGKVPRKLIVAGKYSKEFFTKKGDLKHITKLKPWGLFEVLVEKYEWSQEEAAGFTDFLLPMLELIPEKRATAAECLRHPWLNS

Ac-RERARTRR[Dap](aryl‑SO2F)RARTRERARTR-NH2 [covalent docking blocker of SRPK (C-DBS)] gave a Kd of 1470 nM.
